Starred links: 1 amine or outer side, 2 acyl side, 3 side chain; linkers in the order of their positions; H or OH if unused. Non-standard residues stand in square brackets, D forms with d. Groups on a side chain read outwards from the residue. No end group written: not given here. *: point of attachment. C20 diacid = O=C(O)CCCCCCCCCCCCCCCCCCC(=O)*; αMePhe(2-F) = C[C@](N)(Cc1ccccc1F)C(=O)O; γGlu = O=C(O)[C@H](CCC(=O)[*:2])N[*:1]; αMeF = C[C@](N)(Cc1ccccc1)C(=O)O; 4Pal = N[C@@H](Cc1ccncc1)C(=O)O; AEEA = NCCOCCOCC(=O)O; Aib = CC(C)(N)C(=O)O
T1: human glucose-dependent insulinotropic polypeptide (GIP) receptor (human, UniProt P48546 22-466)
T1 construct: whole, on cells; Assayed as crude membranes of stably transfected CHO cells; also called hGIPR; human GIP receptor
T1 sequence (looked up): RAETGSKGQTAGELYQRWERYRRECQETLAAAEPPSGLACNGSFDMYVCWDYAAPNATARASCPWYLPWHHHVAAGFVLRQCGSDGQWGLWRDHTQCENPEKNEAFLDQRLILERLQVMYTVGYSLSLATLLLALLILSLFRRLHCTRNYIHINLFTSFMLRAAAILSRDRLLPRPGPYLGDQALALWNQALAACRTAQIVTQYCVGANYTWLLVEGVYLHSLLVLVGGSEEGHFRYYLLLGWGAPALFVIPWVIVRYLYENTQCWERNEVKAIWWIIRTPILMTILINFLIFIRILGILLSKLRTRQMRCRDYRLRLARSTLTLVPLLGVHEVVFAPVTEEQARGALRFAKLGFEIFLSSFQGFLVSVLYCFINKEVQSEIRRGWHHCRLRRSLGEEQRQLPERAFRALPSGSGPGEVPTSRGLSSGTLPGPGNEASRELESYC

B1: Example 42 (peptide)
peptide: Y[Aib]EGT[αMeF]ISDYSIALDKK([AEEA-AEEA-γGlu-C20 diacid])HQ[Aib]DFVE[4Pal]LLEQGPSSGAPPPS-NH2
modifications: N-terminus assumed
SMILES: CC[C@H](C)[C@H](NC(=O)[C@H](CO)NC(=O)[C@H](Cc1ccc(O)cc1)NC(=O)[C@H](CC(=O)O)NC(=O)[C@H](CO)NC(=O)[C@@H](NC(=O)[C@](C)(Cc1ccccc1)NC(=O)[C@@H](NC(=O)CNC(=O)[C@H](CCC(=O)O)NC(=O)C(C)(C)NC(=O)[C@@H](N)Cc1ccc(O)cc1)[C@@H](C)O)[C@@H](C)CC)C(=O)N[C@@H](C)C(=O)N[C@@H](CC(C)C)C(=O)N[C@@H](CC(=O)O)C(=O)N[C@@H](CCCCN)C(=O)N[C@@H](CCCCNC(=O)COCCOCCNC(=O)COCCOCCNC(=O)CC[C@H](NC(=O)CCCCCCCCCCCCCCCCCCC(=O)O)C(=O)O)C(=O)N[C@@H](Cc1c[nH]cn1)C(=O)N[C@@H](CCC(N)=O)C(=O)NC(C)(C)C(=O)N[C@@H](CC(=O)O)C(=O)N[C@@H](Cc1ccccc1)C(=O)N[C@H](C(=O)N[C@@H](CCC(=O)O)C(=O)N[C@@H](Cc1ccncc1)C(=O)N[C@@H](CC(C)C)C(=O)N[C@@H](CC(C)C)C(=O)N[C@@H](CCC(=O)O)C(=O)N[C@@H](CCC(N)=O)C(=O)NCC(=O)N1CCC[C@H]1C(=O)N[C@@H](CO)C(=O)N[C@@H](CO)C(=O)NCC(=O)N[C@@H](C)C(=O)N1CCC[C@H]1C(=O)N1CCC[C@H]1C(=O)N1CCC[C@H]1C(=O)N[C@@H](CO)C(N)=O)C(C)C
B2: Example 43 (peptide)
peptide: Y[Aib]EGT[αMeF]ISDYSIALDKK([AEEA-AEEA-γGlu-C20 diacid])HQ[Aib]DFVE[4Pal]LLEAGPSSGAPPPS-NH2
modifications: N-terminus assumed
SMILES: CC[C@H](C)[C@H](NC(=O)[C@H](CO)NC(=O)[C@H](Cc1ccc(O)cc1)NC(=O)[C@H](CC(=O)O)NC(=O)[C@H](CO)NC(=O)[C@@H](NC(=O)[C@](C)(Cc1ccccc1)NC(=O)[C@@H](NC(=O)CNC(=O)[C@H](CCC(=O)O)NC(=O)C(C)(C)NC(=O)[C@@H](N)Cc1ccc(O)cc1)[C@@H](C)O)[C@@H](C)CC)C(=O)N[C@@H](C)C(=O)N[C@@H](CC(C)C)C(=O)N[C@@H](CC(=O)O)C(=O)N[C@@H](CCCCN)C(=O)N[C@@H](CCCCNC(=O)COCCOCCNC(=O)COCCOCCNC(=O)CC[C@H](NC(=O)CCCCCCCCCCCCCCCCCCC(=O)O)C(=O)O)C(=O)N[C@@H](Cc1c[nH]cn1)C(=O)N[C@@H](CCC(N)=O)C(=O)NC(C)(C)C(=O)N[C@@H](CC(=O)O)C(=O)N[C@@H](Cc1ccccc1)C(=O)N[C@H](C(=O)N[C@@H](CCC(=O)O)C(=O)N[C@@H](Cc1ccncc1)C(=O)N[C@@H](CC(C)C)C(=O)N[C@@H](CC(C)C)C(=O)N[C@@H](CCC(=O)O)C(=O)N[C@@H](C)C(=O)NCC(=O)N1CCC[C@H]1C(=O)N[C@@H](CO)C(=O)N[C@@H](CO)C(=O)NCC(=O)N[C@@H](C)C(=O)N1CCC[C@H]1C(=O)N1CCC[C@H]1C(=O)N1CCC[C@H]1C(=O)N[C@@H](CO)C(N)=O)C(C)C
B3: Example 34 (peptide)
peptide: Y[Aib]EGT[αMePhe(2-F)]ISDYSIALDKK([AEEA-AEEA-γGlu-C20 diacid])HQ[Aib]EFVNYLLATGPSSGAPPPS-NH2
modifications: N-terminus assumed
SMILES: CC[C@H](C)[C@H](NC(=O)[C@H](CO)NC(=O)[C@H](Cc1ccc(O)cc1)NC(=O)[C@H](CC(=O)O)NC(=O)[C@H](CO)NC(=O)[C@@H](NC(=O)[C@](C)(Cc1ccccc1F)NC(=O)[C@@H](NC(=O)CNC(=O)[C@H](CCC(=O)O)NC(=O)C(C)(C)NC(=O)[C@@H](N)Cc1ccc(O)cc1)[C@@H](C)O)[C@@H](C)CC)C(=O)N[C@@H](C)C(=O)N[C@@H](CC(C)C)C(=O)N[C@@H](CC(=O)O)C(=O)N[C@@H](CCCCN)C(=O)N[C@@H](CCCCNC(=O)COCCOCCNC(=O)COCCOCCNC(=O)CC[C@H](NC(=O)CCCCCCCCCCCCCCCCCCC(=O)O)C(=O)O)C(=O)N[C@@H](Cc1c[nH]cn1)C(=O)N[C@@H](CCC(N)=O)C(=O)NC(C)(C)C(=O)N[C@@H](CCC(=O)O)C(=O)N[C@@H](Cc1ccccc1)C(=O)N[C@H](C(=O)N[C@@H](CC(N)=O)C(=O)N[C@@H](Cc1ccc(O)cc1)C(=O)N[C@@H](CC(C)C)C(=O)N[C@@H](CC(C)C)C(=O)N[C@@H](C)C(=O)N[C@H](C(=O)NCC(=O)N1CCC[C@H]1C(=O)N[C@@H](CO)C(=O)N[C@@H](CO)C(=O)NCC(=O)N[C@@H](C)C(=O)N1CCC[C@H]1C(=O)N1CCC[C@H]1C(=O)N1CCC[C@H]1C(=O)N[C@@H](CO)C(N)=O)[C@@H](C)O)C(C)C
B4: Example 26 (peptide)
peptide: Y[Aib]EGT[αMePhe(2-F)]ISDYSIALDKK([AEEA-AEEA-γGlu-C20 diacid])HQ[Aib]EFVNWLLAGGPSSGAPPPS-NH2
modifications: N-terminus assumed
SMILES: CC[C@H](C)[C@H](NC(=O)[C@H](CO)NC(=O)[C@H](Cc1ccc(O)cc1)NC(=O)[C@H](CC(=O)O)NC(=O)[C@H](CO)NC(=O)[C@@H](NC(=O)[C@](C)(Cc1ccccc1F)NC(=O)[C@@H](NC(=O)CNC(=O)[C@H](CCC(=O)O)NC(=O)C(C)(C)NC(=O)[C@@H](N)Cc1ccc(O)cc1)[C@@H](C)O)[C@@H](C)CC)C(=O)N[C@@H](C)C(=O)N[C@@H](CC(C)C)C(=O)N[C@@H](CC(=O)O)C(=O)N[C@@H](CCCCN)C(=O)N[C@@H](CCCCNC(=O)COCCOCCNC(=O)COCCOCCNC(=O)CC[C@H](NC(=O)CCCCCCCCCCCCCCCCCCC(=O)O)C(=O)O)C(=O)N[C@@H](Cc1c[nH]cn1)C(=O)N[C@@H](CCC(N)=O)C(=O)NC(C)(C)C(=O)N[C@@H](CCC(=O)O)C(=O)N[C@@H](Cc1ccccc1)C(=O)N[C@H](C(=O)N[C@@H](CC(N)=O)C(=O)N[C@@H](Cc1c[nH]c2ccccc12)C(=O)N[C@@H](CC(C)C)C(=O)N[C@@H](CC(C)C)C(=O)N[C@@H](C)C(=O)NCC(=O)NCC(=O)N1CCC[C@H]1C(=O)N[C@@H](CO)C(=O)N[C@@H](CO)C(=O)NCC(=O)N[C@@H](C)C(=O)N1CCC[C@H]1C(=O)N1CCC[C@H]1C(=O)N1CCC[C@H]1C(=O)N[C@@H](CO)C(N)=O)C(C)C
B5: Example 25 (peptide)
peptide: Y[Aib]EGT[αMeF]ISDYSIALDKK([AEEA-AEEA-γGlu-C20 diacid])HQ[Aib]EFVNWLLAGGPSSGAPPPS-NH2
modifications: N-terminus assumed
SMILES: CC[C@H](C)[C@H](NC(=O)[C@H](CO)NC(=O)[C@H](Cc1ccc(O)cc1)NC(=O)[C@H](CC(=O)O)NC(=O)[C@H](CO)NC(=O)[C@@H](NC(=O)[C@](C)(Cc1ccccc1)NC(=O)[C@@H](NC(=O)CNC(=O)[C@H](CCC(=O)O)NC(=O)C(C)(C)NC(=O)[C@@H](N)Cc1ccc(O)cc1)[C@@H](C)O)[C@@H](C)CC)C(=O)N[C@@H](C)C(=O)N[C@@H](CC(C)C)C(=O)N[C@@H](CC(=O)O)C(=O)N[C@@H](CCCCN)C(=O)N[C@@H](CCCCNC(=O)COCCOCCNC(=O)COCCOCCNC(=O)CC[C@H](NC(=O)CCCCCCCCCCCCCCCCCCC(=O)O)C(=O)O)C(=O)N[C@@H](Cc1c[nH]cn1)C(=O)N[C@@H](CCC(N)=O)C(=O)NC(C)(C)C(=O)N[C@@H](CCC(=O)O)C(=O)N[C@@H](Cc1ccccc1)C(=O)N[C@H](C(=O)N[C@@H](CC(N)=O)C(=O)N[C@@H](Cc1c[nH]c2ccccc12)C(=O)N[C@@H](CC(C)C)C(=O)N[C@@H](CC(C)C)C(=O)N[C@@H](C)C(=O)NCC(=O)NCC(=O)N1CCC[C@H]1C(=O)N[C@@H](CO)C(=O)N[C@@H](CO)C(=O)NCC(=O)N[C@@H](C)C(=O)N1CCC[C@H]1C(=O)N1CCC[C@H]1C(=O)N1CCC[C@H]1C(=O)N[C@@H](CO)C(N)=O)C(C)C

What follows are binders tested against T2, human GLP-1 receptor (human, UniProt P43220 24-463) (assay: SPA, displacement of [125I]-GLP-1 from hGLP-1R membranes, 0.1% bacitracin).
T2 construct: whole, on cells; Assayed as crude membranes of stably transfected HEK293 cells; also called hGLP1R; hGLP-1R
Procedure, shortened: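 Binding buffer: 25 mM HEPES pH 7.4, 2.5 mM CaCl₂, 1 mM MgCl₂, 0.1% bacitracin, 0.003% Tween-20, protease inhibitors without EDTA. Four-parameter nonlinear regression; Kᵢ given as geometric mean ± SEM, n = independent replicates run on different days.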

| Binder | Ki [nM] |
| --- | --- |
| B1 | 563 |
| B2 | 605 |
| B3 | 201 |
| B4 | 16.5 |
| B5 | 15.8 |

The binders below were run against T3, human glucagon receptor (human, UniProt P47871 26-477) (assay: SPA, displacement of [125I]-Gcg from hGcgR membranes, 0.1% bacitracin).
T3 construct: whole, on cells; Assayed as crude membranes of stably transfected HEK293 cells; also called hGcgR; GcgR
T3 sequence (P47871 26-477): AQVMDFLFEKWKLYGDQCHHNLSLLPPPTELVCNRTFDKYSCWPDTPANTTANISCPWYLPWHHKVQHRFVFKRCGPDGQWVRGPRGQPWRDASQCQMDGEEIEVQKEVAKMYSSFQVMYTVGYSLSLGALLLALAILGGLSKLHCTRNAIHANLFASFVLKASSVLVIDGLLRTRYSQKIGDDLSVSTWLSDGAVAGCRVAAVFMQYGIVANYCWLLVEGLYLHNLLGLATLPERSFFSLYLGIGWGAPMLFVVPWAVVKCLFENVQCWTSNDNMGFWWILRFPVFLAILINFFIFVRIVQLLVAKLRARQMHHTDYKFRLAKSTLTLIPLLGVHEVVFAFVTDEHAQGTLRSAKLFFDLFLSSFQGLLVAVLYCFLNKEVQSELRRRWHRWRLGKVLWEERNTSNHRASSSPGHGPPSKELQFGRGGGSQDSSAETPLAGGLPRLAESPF
Procedure, shortened: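 Binding buffer: 25 mM HEPES pH 7.4, 2.5 mM CaCl₂, 1 mM MgCl₂, 0.003% Tween-20, protease inhibitors without EDTA. Counted by scintillation after 12 h incubation/settling at room temperature. Four-parameter nonlinear fit; Kᵢ given as geometric mean ± SEM of independent replicates run on different days.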

| Binder | Ki [nM] |
| --- | --- |
| B1 | 99.1 |
| B2 | 285 |
| B3 | 143 |
| B4 | 74.1 |
| B5 | 101 |

What follows are binders tested against T1, human glucose-dependent insulinotropic … (assay: SPA, displacement of [125I]-GIP from hGIPR membranes, 0.1% bacitracin).

| Binder | Ki [nM] |
| --- | --- |
| B1 | 0.0392 |
| B2 | 0.0366 |
| B3 | 0.034 |
| B4 | 0.045 |
| B5 | 0.0417 |

Source: US20210032299A1 (Eli Lilly, published 2021)
